Consider four substances from US20060233798A1.

The target of experiment [1] is CCR5 chemokine receptor on the cell surface (UniProt P51681). Nature of the experiment: flow cytometry on mitogen-stimulated PBMC. A general note: A flow cytometer gives signals particle by particle.
For experiment [2] the target is unchanged. Kind of experiment: cell-based or functional assay.
The target is the same in experiment [3]. Nature of the experiment: flow cytometry on L1.2-CCR5+ cells, PE anti-mouse IgG.
The target is the same in experiment [4].
Experiment [5] concerns the target HIV-1JR-FL envelope glycoproteins gp120/gp41 on HeLa-EnvJR-FL+ cells (HIV-1 JR-FL). Nature of the experiment: cell-based or functional assay.

Sequence of UniProt P51681 (P51681 whole entry): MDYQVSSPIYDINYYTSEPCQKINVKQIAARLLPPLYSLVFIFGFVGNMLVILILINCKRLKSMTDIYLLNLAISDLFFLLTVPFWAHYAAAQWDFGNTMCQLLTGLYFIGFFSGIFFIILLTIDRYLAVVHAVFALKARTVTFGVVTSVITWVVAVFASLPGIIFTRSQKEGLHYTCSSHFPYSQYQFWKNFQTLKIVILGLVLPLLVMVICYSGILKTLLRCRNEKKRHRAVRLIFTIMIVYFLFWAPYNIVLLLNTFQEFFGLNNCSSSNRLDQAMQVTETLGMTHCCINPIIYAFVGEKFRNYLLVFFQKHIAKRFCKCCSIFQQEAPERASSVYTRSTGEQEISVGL

In experiment [1], anti-CCR5 monoclonal antibody PA14 returned a % of PBMC stained of more than 20% and a fold difference of m.f.i. against PA9 of 7 fold. In addition, in experiment [2], the % inhibition of entry attained was more than 90%; the % inhibition of fusion attained is more than 90%; the IC50, inhibition of JR-FL entry (luciferase reporter virus, U87MG-CD4+CCR5+ cells) came out at 0.024 µg/mL; the IC50, inhibition of cell-cell fusion (RET assay, PM1 and HeLa-EnvJR-FL+ cells) is 1.7 µg/mL. In experiment [2], the IC50 for calcium influx inhibition (RANTES-induced, L1.2-CCR5+ cells) came to 50 µg/mL and the IC50 for calcium influx inhibition, ratio to the IC50 for 2D7 is 8 fold. In experiment [3], the % of L1.2-CCR5+ cells stained was more than 90%. For the same substance, in experiment [4], the IC50 (in general, the concentration that gives 50% inhibition) came out at 1.58 µg/mL.

As to anti-CCR5 mAb 2D7 (antibody), the % of PBMC stained in experiment [1] was more than 20%. In addition, in experiment [2], the IC50, inhibition of JR-FL entry (luciferase reporter virus, U87MG-CD4+CCR5+ cells) was 0.026 µg/mL; the IC50, inhibition of cell-cell fusion (RET assay, PM1 and HeLa-EnvJR-FL+ cells) worked out at 1.6 µg/mL; the K (equal to the IC50) of the median effect fit, inhibition of cell-cell fusion (RET assay) was 0.36 µg/mL. This substance came in with a % of L1.2-CCR5+ cells stained in experiment [3] of more than 90%. Also, the half-inhibitory concentration (IC50) in experiment [4] came out at 1.38 µg/mL.

As to “CD4-IgG2 (from UniProt P01730 26-204; P01730 26-203) (Fc fusion)”, in experiment [5], the K (equal to the IC50) of the median effect fit, inhibition of env-mediated membrane fusion (RET assay, HeLa-EnvJR-FL+ and PM1 cells) came to 0.31 µg/mL.

T-20 peptide had a K (equal to the IC50) of the median effect fit, inhibition of env-mediated membrane fusion (RET assay, HeLa-EnvJR-FL+ and PM1 cells) in experiment [5] of 0.017 µg/mL.
